This note sets out measurements from PMC5484772.

What all share (test): SPR; competition in solution, Biacore T200: 796 nM (50 ug/ml) purified DiCo mixed with PfRon2L in serial 1:3 dilutions from 12.5 uM to 5.7 nM, incubated 4 h at room temperature; residual binding of free DiCo read on biotinylated PfRon2L immobilised on a Series S streptavidin chip; buffer control set to 100%
For orientation: Surface plasmon resonance follows binding to a sensor surface in real time, without labels.

For one assay, the target named is DiCo-Mix.
For assay [1], the target named is PfAMA1 diversity covering variant DiCo2.
The target in assay [2] is PfAMA1 diversity covering variant DiCo1.
Assay [3] addresses PfAMA1 diversity covering variant DiCo3.

Bridges are numbered along the chain shown (N, C = ends). Where no end group is shown, it is not given here.

With DITQQAKDIGAGPVASCFTTRMSPPQQICLNSVVNTALS (disulfide 17-29 (inferred)) [PfRon2L], the PfRon2L concentration at full equilibrium saturation of 796 nM DiCo (with DiCo-Mix; in assay [1]; in assay [2]; in assay [3]) was 12.5 µM each time. In addition, the PfRon2L concentration for almost full saturation of 796 nM DiCo (with DiCo-Mix; in assay [1]; in assay [2]) was above 1000 nM each time. Also, the PfRon2L concentration for equilibrium saturation of 796 nM DiCo in assay [3] was above 10 µM.
